The results in this text go back to PMC4105859, “Characterization of the SAM domain of the PKD-related protein ANKS6 and its interaction with ANKS3” (BMC Structural Biology, 2014).

To fix the notation:
T1: ANKS6-SAM wt (human, UniProt Q68DC2 771-840)
T1 chain: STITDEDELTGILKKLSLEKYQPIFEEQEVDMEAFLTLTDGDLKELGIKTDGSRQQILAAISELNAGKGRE

T2: ANKS3-SAM F53E
T2 chain: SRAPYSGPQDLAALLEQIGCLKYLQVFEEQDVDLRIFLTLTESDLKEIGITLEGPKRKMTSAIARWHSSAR

B1: ANKS3-SAM I36E (domain or fragment)
chain: T2 chain with I36E, E53F
B2: His6-tagged ANKS6-SAM (domain or fragment, human, UniProt Q68DC2 771-840, looked up)
chain: TITDEDELTGILKKLSLEKYQPIFEEQEVDMEAFLTLTDGDLKELGIKTDGSRQQILAAISELNAGKGRE
notes: ANKS6, human, SAM domain, residues 771-840 of UniProt Q68DC2; pBAD-HisA vector; source: ARI814 cells, purified (HiTrap IMAC, HiTrap Q)
B3: negGFP-ANKS3-SAM fusion protein (domain or fragment, human, UniProt Q6ZW76 421-490, looked up)
chain: RAPYSGPQDLAALLEQIGCLKYLQVFEEQDVDLRIFLTLTESDLKEIGITLFGPKRKMTSAIARWHSSAR
notes: ANKS3 (ankyrin repeat and SAM-domain containing protein 3), human, SAM domain, residues 421-490 of UniProt Q6ZW76; source: ARI814 cells, in lysate (native gel); purified (Ni-NTA, HiTrap Q) for TEM
B4: His6-tagged ANKS3-SAM (domain or fragment, human, UniProt Q6ZW76 421-490, looked up)
chain: B3 chain
notes: ANKS3, human, SAM domain, residues 421-490 of UniProt Q6ZW76; pET28 vector; also called ANKS3-SAM (negGFP removed); ANKS3-SAM precipitate; source: Rosetta(DE3) cells, purified (Ni-NTA); precipitated after purification

The target in data set [1] is T1, ANKS6-SAM wt. Put plainly: SPR; ANKS6-SAM wt immobilised on CM5 (EDC/NHS), ANKS3-SAM I36E flowed over; Biacore T100, 21°C, 20 mM HEPES pH 7.5, 1 mM DTT, 0.04% IGEPAL CA-630, 0.15 M NaCl; equilibrium, 1:1 steady-state model, triplicate. (In general: Surface plasmon resonance follows binding to a sensor surface in real time, without labels.)
Data set [2] has as its target T2, ANKS3-SAM F53E. Nature of the data set: SPR. The settings on record: chain shown with the change, read off a plot.
Data set [3] concerns the target T1, ANKS6-SAM wt. Nature of the data set: SPR; value printed in panel; legend gives 249 nM.
The target in data set [4] is ANKS3-SAM F53E (human). Put plainly: SPR; ANKS3-SAM F53E immobilised on CM5 (EDC/NHS), ANKS3-SAM I36E flowed over; Biacore T100, 21°C, 20 mM HEPES pH 7.5, 1 mM DTT, 0.04% IGEPAL CA-630, 0.15 M NaCl; equilibrium, 1:1 steady-state model, triplicate; Kd called an approximation since saturation was not reached.
The target in data set [5] is B4. Put plainly: resolubilisation of a precipitate; His6-ANKS3-SAM precipitate (3.2 mg/mL dialysed into 20 mM Tris pH 7, 0.25 M NaCl, 1 mM DTT); His6-ANKS6-SAM at 3.3 mg/mL or buffer alone added at 2:1, 1:1, 1:2; 3 h on ice. Conditions: both partners purified.
Data set [6] concerns the molecule itself. Nature of the data set: negative stain transmission electron microscopy; purified protein or its precipitate on carbon/formvar grids, 1% uranyl acetate, 120 kV.

Substitutions are numbered along the chain they refer to. Numbers in names are those of the source.

B1: the values for the equilibrium dissociation constant (Kd) in data set [1], in data set [3] and in data set [4] were 249 nM, 270 nM and 5800 nM, respectively. Moreover, the other: Log (Kd) was found to be 4 in data set [2] (Log [NaCl] est. -0.60), 3.9 in data set [2] (Log [NaCl] est. -0.70), 3.8 in data set [2] (Log [NaCl] est. -0.82) and 3.7 in data set [2] (Log [NaCl] est. -1.0).

With B2, the binding result in data set [5] is recorded as “binds”.

For the molecule B3, the binding result in data set [6] is listed as “binds”.

With B4, the binding result in data set [6] is given as “binds”.

By Kd is commonly meant the equilibrium constant for the complex coming apart. Read a low Kd as higher affinity.
